Target: Netrin-1 (NET1) from Mus musculus lacking the C-terminal domain (NP_032770, aa: 24-457) (Mus musculus, UniProt O09118 24-457)
Experiment: solid-phase binding assay

B1: full-length ectodomain of NEO1 (AAH54540, aa: 41-1107) (receptor)
chain: GAAATKSGSPPQSAGASVRTFTPFYFLVEPVDTLSVRGSSVILNCSAYSEPSPNIEWKKDGTFLNLESDDRRQLLPDGSLFISNVVHSKHNKPDEGFYQCVATVDNLGTIVSRTAKLTVAGLPRFTSQPEPSSVYVGNSAILNCEVNADLVPFVRWEQNRQPLLLDDRIVKLPSGTLVISNATEGDGGLYRCIVESGGPPKFSDEAELKVLQDPEEIVDLVFLMRPSSMMKVTGQSAVLPCVVSGLPAPVVRWMKNEEVLDTESSGRLVLLAGGCLEISDVTEDDAGTYFCIADNGNKTVEAQAELTVQVPPGFLKQPANIYAHESMDIVFECEVTGKPTPTVKWVKNGDVVIPSDYFKIVKEHNLQVLGLVKSDEGFYQCIAENDVGNAQAGAQLIILEHDVAIPTLPPTSLTSATTDHLAPATTGPLPSAPRDVVASLVSTRFIKLTWRTPASDPHGDNLTYSVFYTKEGVARERVENTSQPGEMQVTIQNLMPATVYIFKVMAQNKHGSGESSAPLRVETQPEVQLPGPAPNIRAYATSPTSITVTWETPLSGNGEIQNYKLYYMEKGTDKEQDIDVSSHSYTINGLKKYTEYSFRVVAYNKHGPGVSTQDVAVRTLSDVPSAAPQNLSLEVRNSKSIVIHWQPPSSTTQNGQITGYKIRYRKASRKSDVTETLVTGTQLSQLIEGLDRGTEYNFRVAALTVNGTGPATDWLSAETFESDLDETRVPEVPSSLHVRPLVTSIVVSWTPPENQNIVVRGYAIGYGIGSPHAQTIKVDYKQRYYTIENLDPSSHYVITLKAFNNVGEGIPLYESAVTRPHTVPDPTPMMPPVGVQASILSHDTIRITWADNSLPKHQKITDSRYYTVRWKTNIPANTKYKNANATTLSYLVTGLKPNTLYEFSVMVTKGRRSSTWSMTAHGATFELVPTSPPKDVTVVSKEGKPRTIIVNWQPPSEANGKITGYIIYYSTDVNAEIHDWVIEPVVGNRLTHQIQELTLDTPYYFKIQARNSKGMGPMSEAVQFRTPKALGSAGKGSRLPDLGSDYKPPMSGSNSPHGSPTSPLDSN
Kd: 7.58 nM
